{
  "source": "paper PMC3585277",
  "about": "“The C-Terminal Region Mesd Peptide Mimics Full-Length Mesd and Acts as an Inhibitor of Wnt/β-Catenin Signaling in Cancer Cells” (PLoS ONE, 2013)",
  "key": {"Wnt/β-catenin signaling [1]": {"tested_on": "Wnt/β-catenin signaling", "test": "TOPFlash luciferase reporter assay, LRP5-transfected HEK293 cells", "format": "cell-based, human", "conditions": "Wnt3A CM 5%, Rspo1 40 ng/ml, mMesd 2 µM, peptide at indicated concentrations, 24 h, normalized to β-galactosidase", "procedure": "(§1) Cells were plated into 24-well plates. After overnight culture, the cells were transiently transfected with the TOPFlash or Super8XTOPFlash luciferase construct, β-galactosidase-expressing vector, and pcDNA3.1C-Myc-hLRP5, pCS-Myc-hLRP6 or control vector. After 24 h incubation, cells were treated with Mesd, Mesd peptide, Rspo1 and Wnt3A CM. Cells were then lysed 24 h later and both luciferase and β-galactosidase activities were determined. The luciferase activity was normalized to the β-galactosidase activity."}, "Wnt/β-catenin signaling [2]": {"tested_on": "Wnt/β-catenin signaling", "test": "TOPFlash luciferase reporter assay, LRP6-transfected HEK293 cells", "format": "cell-based, human", "conditions": "Wnt3A CM 5%, Rspo1 40 ng/ml, mMesd 2 µM, peptide at indicated concentrations, 24 h, normalized to β-galactosidase", "procedure": "as §1"}, "LRP6 phosphorylation": {"tested_on": "LRP6 phosphorylation", "test": "Western blot of phosphorylated LRP6 in C2C12 cells", "format": "cell-based, mouse", "conditions": "C2C12, Wnt3A CM 5%, 6 h; mMesd 0.5 µM, peptide at indicated concentrations", "procedure": "(§2) Cells in 6-well plates were lysed in 0.5 ml of lysis buffer (phosphate-buffered saline containing 1% Triton X-100 and 1 mM PMSF) at 4°C for 10 min. Equal quantities of protein were subjected to SDS-PAGE under reducing conditions. Following transfer to immobilon-P transfer membrane, successive incubations with anti-HA, anti-Wnt10b, anti-β-catenin, anti-OPG, anti-phosphorylated-LRP6, anti-LRP6, anti-Axin2, anti-Cyclin D1 or anti-actin, and horseradish peroxidase-conjugated secondary antibody were carried out for 60–120 min at room temperature. The immunoreactive proteins were then detected using the ECL system. Films showing immunoreactive bands were scanned by Kodak Digital Science DC120 Zoom Digital Camera."}, "OPG expression": {"tested_on": "OPG expression", "test": "Western blot of OPG expression in C2C12 cells", "format": "cell-based, mouse", "conditions": "48 h, mMesd 0.5 µM", "procedure": "as §2"}, "Wnt/β-catenin signaling [3]": {"tested_on": "Wnt/β-catenin signaling", "test": "Super8XTOPFlash luciferase reporter assay, PC-3 cells", "format": "cell-based, human", "conditions": "24 h treatment", "procedure": "as §1"}, "Wnt/β-catenin signaling [4]": {"tested_on": "Wnt/β-catenin signaling", "test": "Super8XTOPFlash luciferase reporter assay, HS578T cells", "format": "cell-based, human", "conditions": "24 h treatment", "procedure": "as §1"}, "PC-3 cells [5]": {"tested_on": "PC-3 cells", "test": "Cell proliferation assay (trypan blue exclusion), PC-3 cells", "format": "cell-based, human", "conditions": "PC-3, RPMI-1640 2% FBS, 10 days; mMesd 2 µM, hMesd (160–197) 4 µM, control peptide 4 µM; n = 3", "procedure": "(§3) Cells were seeded into 6-well plates at a density of 10000 cells/well. RPMI-1640 or DMEM medium containing 2% FBS was used as assay media. After 16 h incubation, the cells were treated with Mesd or its peptide for 10 days. Media were changed every other day. At the end of the experiment, cells were harvested and counted using the trypan blue exclusion assay."}, "HS578T cells [6]": {"tested_on": "HS578T cells", "test": "Cell proliferation assay (trypan blue exclusion), HS578T cells", "format": "cell-based, human", "conditions": "DMEM 2% FBS, 10 days, mMesd 2 µM, hMesd (160–197) 4 µM, control peptide 4 µM, n = 3", "procedure": "as §3"}, "HS578T cells [7]": {"tested_on": "HS578T cells", "test": "Cell viability, Cell Titer Glo Assay, HS578T cells", "format": "cell-based, human", "procedure": "(§4) Cell viability was measured in 96-well plates by the Cell Titer Glo Assay (Promega), which is a luminescent assay that is an indicator of live cells as a function of metabolic activity and ATP content."}, "PC-3 cells [8]": {"tested_on": "PC-3 cells", "test": "Cell viability, Cell Titer Glo Assay, PC-3 cells", "format": "cell-based, human", "conditions": "Mesd 2 µM or hMesd (160–197) 2 µM with Adriamycin 0.5 µM, 2 days after pre-treatment", "procedure": "as §4"}, "PC-3 cells [9]": {"tested_on": "PC-3 cells", "conditions": "cited from earlier work", "text": "(§5) Treatment of prostate cancer cells with Wnt3A CM or purified recombinant Wnt ..."}, "PC-3 tumor": {"tested_on": "PC-3 tumor", "conditions": "cited from earlier work", "text": "as §5"}, "Wnt/β-catenin signaling [10]": {"tested_on": "Wnt/β-catenin signaling", "conditions": "cited from earlier work", "text": "as §5"}, "MDA-MB-231 tumor": {"tested_on": "MDA-MB-231 tumor", "conditions": "cited from earlier work"}},
  "data": [
    {"molecule": "Mesd protein: recombinant mouse Mesd protein, full-length; binds mature LRP5 and LRP6, universal antagonist of LRP5/6 modulators (protein, 125I (IODO-GEN method) on the radioligand; unlabeled when used as competitor) ADTPGEATPPPRKKKDIRDYNDADMARLLEQWEKDDDIEEGDLPEHKRPSAPIDFSKLDPGKPESILKMTKKGKTLMMFVTVSGNPTEKETEEITSLWQGSLFNANYDVQRFIVGSDRAIFMLRDGSYAWEIKDFLVSQDRCAEVTLEGQMYPGKGGGSKEKNKTKPEKAKKKEGDPKPRASKEDNRAGSRREDL", "values": [
      {"measurement": "TOPFlash activity induced by LRP5, LRP5 plus Wnt3A, LRP5 plus Rspo1", "setting": "Wnt/β-catenin signaling [1]", "value": "blocked"},
      {"measurement": "TOPFlash activity induced by LRP6, LRP6 plus Wnt3A, LRP6 plus Rspo1", "setting": "Wnt/β-catenin signaling [2]", "value": "blocked"},
      {"measurement": "Wnt3A-induced endogenous LRP6 phosphorylation", "setting": "LRP6 phosphorylation", "value": "able to suppress"},
      {"measurement": "OPG expression induced by Rspo1 plus Wnt3A", "setting": "OPG expression; C2C12, Rspo1 20 ng/ml, Wnt3A CM 2%, mMesd (155–191) 2 µM", "value": "repressed"},
      {"measurement": "Wnt3A-induced OPG expression", "setting": "OPG expression; C2C12, Wnt3A CM 5%, peptide at indicated concentrations", "value": "able to suppress"},
      {"measurement": "Wnt reporter luciferase activity", "setting": "Wnt/β-catenin signaling [3]; PC-3, endogenous signaling, indicated concentrations", "value": "significantly repressed"},
      {"measurement": "Wnt reporter luciferase activity induced by Wnt1", "setting": "Wnt/β-catenin signaling [3]; PC-3 transfected with Wnt1 plasmid", "value": "significantly repress"},
      {"measurement": "Wnt reporter luciferase activity induced by Wnt1", "setting": "Wnt/β-catenin signaling [4]; HS578T transfected with Wnt1 plasmid", "value": "significantly repress"},
      {"measurement": "Wnt reporter luciferase activity", "setting": "Wnt/β-catenin signaling [4]; HS578T, endogenous signaling, indicated concentrations", "value": "significantly repressed"},
      {"measurement": "cell proliferation", "setting": "PC-3 cells [5]", "value": "displayed inhibitory effect"},
      {"measurement": "cell proliferation", "setting": "HS578T cells [6]", "value": "displayed inhibitory effect"},
      {"measurement": "Adriamycin-induced cytotoxicity", "setting": "HS578T cells [7]; Mesd 2 µM or hMesd (160–197) 2 µM with Adriamycin 0.5 µM, 2 days after pre-treatment", "value": "potentiate"},
      {"measurement": "inhibition of cell viability", "setting": "HS578T cells [7]; single agent: Mesd protein 2 µM or Adriamycin 0.5 µM, Mesd 4 days pre-treatment, then 2 days, n = 4", "value": 25, "unit": "%"},
      {"measurement": "Adriamycin-induced cytotoxicity", "setting": "PC-3 cells [8]", "value": "potentiate"},
      {"measurement": "PC-3 cell proliferation in vitro", "setting": "PC-3 cells [9]", "value": "suppressed"},
      {"measurement": "PC-3 tumor growth in vivo", "setting": "PC-3 tumor", "value": "suppressed"},
      {"measurement": "Wnt/β-catenin signaling in prostate cancer PC-3 cells", "setting": "Wnt/β-catenin signaling [10]", "value": "markedly inhibited"},
      {"measurement": "MDA-MB-231 tumor growth", "setting": "MDA-MB-231 tumor", "value": "suppressed"}
    ]}
  ]
}
